A short description of this series: yeast display, Sf9 membrane polyspecificity reagent, FACS + sequencing; frameworks hold sequencing errors. Put shortly:
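Polyreactivity labels are assigned by the sorting gate from which each nanobody was recovered. The gates were low and high (top ~1%), set on anti-HA fluorescence for expression and streptavidin fluorescence for reagent binding. Before sorting, galactose-induced (36–48 hours) yeast display cells were stained for 1 hour at 4 °C with 10% biotinylated, detergent-solubilized Sf9 membrane reagent.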
Regarding “QVQLVESGGGLVQAGGSLRLSCAASGSILVYNAMGWYRQAPGKERELVAAISNTGRTYYAVSVKGRFTISRDIAKNTVYVQMNSLKPEDTAVYYCAAARTSTGSYRYEYWGQGTQGTVSS”, the “polyreactivity (PSR sort gate)” value is “high polyreactivity”.
To “QVQLVESGGGLVQAGGSLRLSCAASGSILWLNAMGWYRQAPGKERELVADITRGGSTYYADSVKGRFTISRDNAKNTVYLQMNSLKPEDTAVYYCAAKRGKTYQRFDYWGQGTQVTVSS” belongs “high polyreactivity”.
Then “QVQLVESGGGLVQAGGSLRLSCAASGSILWSYAMGWYRQAPGKERELVAAISGSTGSTYYADSVKGRFTISRDNAKNTVYLQMNSLKPEDTAVYYCAAEYYEDYDDYDYWGQGTQVTVSS”, with “low polyreactivity”; and “QVQLVESGGGLVQAGGSLRLSCAASGSILWSYAMGWYRQAPGKERELVAAITSGGSTYYADSVKGRFTISRDNAKNTVYLQMNSLKPEDTAVYYCAADRWRDFWFNEEYWGQGTQVTVSS”, with “high polyreactivity”; and “QVQLVESGGGLVQAGGSLRLSCAASGSILYISARGWYRQAPGKERELVASINSGASTNYADSVKGRFTISRDNAKNTVYLQMNSLKPEDTAVYYCAKSIVNPPHGFKDFDYWGQGTQVTLSS”, with “low polyreactivity”.
As for “QVQLVESGGGLVQAGGSLRLSCAASGSILYIYAMGWYRQAPGKVRELVAAITGSGGTTNYADSVKGRFTISRDNAKNTVYLQMNSLKPEDTAVYYCNIGSYYSCYDFWGQGTQVTVSS”, the “polyreactivity (PSR sort gate)” value is “low polyreactivity”.
As for “QVQLVESGGGLVQAGGSLRLSCAASGSILYLNARGWYRQAPGKERELVAGISRRGGRTTYADSVKGRFTISRDNAKNTVYLQMNSLKPEDTAVSYCAVSTAYGYGYWGQGTQVTVSS”, the “polyreactivity (PSR sort gate)” value was “high polyreactivity”.
As for “QVQLVESGGGLVQAGGSLRLSCAASGSILYLYAMGWYRPAPGKERELVAAITRIGGSTYYADSVKGRFTISRDNAKNTVYLQMNSLKPEDTAVYYCAAGGTARDDSWGQGTQVTVSS”, the “polyreactivity (PSR sort gate)” value is recorded as “low polyreactivity”.
To “QVQLVESGGGLVQAGGSLRLSCAASGSILYPYAMGWYRQAPGKERELVAAISRGGSTNYADSVKGRFTISRDNAKDTVYLQMNSLKPEDTAVYYCATAYTRFSQRYEYYVIYWQNDYWGQGTQVTVSS” belongs “low polyreactivity”.
Consider “QVQLVESGGGLVQAGGSLRLSCAASGSILYSNAMGWYRQAPGKERELVAVITWGGGSTYYADSVKGRFTISRDNAKNTVFLQMNSLKPEDTAVYYCAARARRGLRAYVELDYWGQGTQVTVSS”, for which the “polyreactivity (PSR sort gate)” value was “low polyreactivity”.
For “QVQLVESGGGLVQAGGSLRLSCAASGSILYSYPMGWYRQAPGKERELVAAITGDGASTTYADSVKGRFTISRDNAKNTVYLQLNSLKPEDTAVYYCKAGRESDDVSEGSQRICQFDYWGPGTQVTVSS”, the “polyreactivity (PSR sort gate)” value is “low polyreactivity”.
As to “QVQLVESGGGLVQAGGSLRLSCAASGSILYVYAMGWYRQAPGKEWELVAVITSGGSTNYADSVKGRFTISRDNAKNTVYLQMNSLKPEDTAVYYCAADPYSVYGGDYWGQGTQVTVSS”, the “polyreactivity (PSR sort gate)” value is listed as “low polyreactivity”.
For “QVQLVESGGGLVQAGGSLRLSCAASGSILYYNAMGWYRQAPGKERELVAAISQRGASTYYADSVKGRFTISRDNAKNTVYLQMNSLKPEDTAVYYCAARTRLTADPRYGISSKMYYWGQGTQVTVSS”, the “polyreactivity (PSR sort gate)” value is recorded as “high polyreactivity”.
Then “QVQLVESGGGLVQAGGSLRLSCAASGSILYYNAMGWYRQAPGKERELVAAITSGGSTYADSVKGRFTISRDNAKNTVYLQMNSLKPEDTAVYYCAADLDWYLSDYGTSLEHDYWGQGTQVTVSS”, with “low polyreactivity”; and “QVQLVESGGGLVQAGGSLRLSCAASGSILYYYAMGWYRQAPGKERELVAAITRSGGSTYYADSVKGRITISRDNAKNTVYLQMNSLKPEDTAVYYCAKDAHAYRDLDYWGQGTQVTVSS”, with “low polyreactivity”; and “QVQLVESGGGLVQAGGSLRLSCAASGSIQYYAMGWYRHAPGKERELVAAIRFSGGRTYYADSVKGRFTISRDNAKITVYLQMHSLKPEHTAVYYCAAYRSPRRSGAPSQGKFDYCGQGTQVTVSS”, with “low polyreactivity”.
“QVQLVESGGGLVQAGGSLRLSCAASGSIRHNTIGWYRQAPGKESEFVASISKRGGSTYYADSVKGRFTISRDNAKNTVYLQMNSLKPEDTAVYYCNAGAVTFVGRDYWGQGTQVTVSS”: the “polyreactivity (PSR sort gate)” value is on record as “high polyreactivity”.
Regarding “QVQLVESGGGLVQAGGSLRLSCAASGSIRSYAMGWYRQAPGKERELVAAITRSGGSTYYADSVKGRFTISRDNAKNTVYLQMNSLKPEDTAVYYCAAEVRGKSRSTRVSYRYDYWGQGTQVTVSS”, the “polyreactivity (PSR sort gate)” value is reported as “high polyreactivity”.
Then “QVQLVESGGGLVQAGGSLRLSCAASGSIRVTNDMGWYRQATGKERELVAAITSIGGSTNYADSVKGRFTISRDNAKNPVYLQMNSLKPEDTAVYYCNVYLGILYKYDYWGQGTQVTVSS”, with “low polyreactivity”.
For the sequence “QVQLVESGGGLVQAGGSLRLSCAASGSIRYYAMGWYIQAPGKERELVAAISSRGTNTYYADSVKGRFTISRDNAKNTVYLQMNSLKPEDTAVYYCNAVVGLGYNYWGQGTQVTVSS”, the “polyreactivity (PSR sort gate)” value was “high polyreactivity”.
To “QVQLVESGGGLVQAGGSLRLSCAASGSIRYYAMGWYRQAPGKEREFVAAISRRGSSTNYADSVKGRFTISRDNAKNTVYLQMNRLKPEDTAVYYCARGLDVISYGYDYWGQGTQVTVSS” belongs “high polyreactivity”; to “QVQLVESGGGLVQAGGSLRLSCAASGSISAPNAMGWYRQAPGKERELVATINSGGRTNYADSVKGRFTISRDNSKNTVYLQMNSLKPEDTAVYYCNTVFRGAYTYGDVSKYDYWGQGTQVTVSS”, “low polyreactivity”; to “QVQLVESGGGLVQAGGSLRLSCAASGSISDIYAMGWYRQAPGKERELVASISSGGITNYADSVKGRFTISRDNAKNTVYLQMNSLKPEDTAVYYCAKDRYPISFFYQMEYWGQGTQVTVSS”, “low polyreactivity”.
Consider “QVQLVESGGGLVQAGGSLRLSCAASGSISEIYAMGWYRQAPGKERELVAAISWSGGRTYYADSVKGRFTISRDNAKNTVYLQMNSLKPEDTAVYYCAARYRGGYYFGYEPYYYWGQGTQVTVSS”, for which the “polyreactivity (PSR sort gate)” value is “high polyreactivity”.
With “QVQLVESGGGLVQAGGSLRLSCAASGSISFLYTMGWYRQAPGKERELVAAITGSTASTYYADSVKGRFTISSDYAKNTVYLQMKSLKPEDTAVYYCAAYWYAVGYWVSRDYWGQGTQVTVSS”, the “polyreactivity (PSR sort gate)” value was “low polyreactivity”.
Turning to “QVQLVESGGGLVQAGGSLRLSCAASGSISGWYAMGWYRQAPGKERELVADISSIAGSTYYADCVKGRFTISRDNAKNTDSLQKNSLKPEDTAVYYGAADRGVDYEYDYWGQGTQVTVSS”, the “polyreactivity (PSR sort gate)” value is “low polyreactivity”.
To “QVQLVESGGGLVQAGGSLRLSCAASGSISGYYVMGWYRQAPGKERELVAAITWRGGSTYYADSVKGSFTISRDNAKNTVYLQMNSLKPEDTAVYYCNKVPGRRSTFEYWGQGTQVTVSS” belongs “high polyreactivity”; to “QVQLVESGGGLVQAGGSLRLSCAASGSISHYAMGWYTQAPGTESELVAAISRRGGSTYYADSVKGRFTISRDNAKNTVYLQLNSLKPEDTAVYYCNAVRAGGYTEFNYWGQGTQVTVSS”, “high polyreactivity”; to “QVQLVESGGGLVQAGGSLRLSCAASGSISKINAMGWYRQAPGKERELVAAINTGDSTYYADSVKGRFTISRDNAKNTVYLQMNSLKPEDTAVYYCAAEGSPTGYDYWGQGTQVTVSS”, “low polyreactivity”.
Take “QVQLVESGGGLVQAGGSLRLSCAASGSISPQNVMGWYRQAPGKERELVAAITWTGTSTYADSVKGSFTISRDNAKNTVYLQMNSLKPEDTAVYYCAARYYAPRWFRYDYWGQGTQVTVSS”: the “polyreactivity (PSR sort gate)” value is recorded as “low polyreactivity”.
In the case of “QVQLVESGGGLVQAGGSLRLSCAASGSISQKYVMGWYRKAPGKERELVAAIRSTGNTYYADSVKGRFTISRDNAKNTVYLQMNSLKPEDTAVYYCAARLYVLRWYPYDYWGQGTQVTVSS”, the “polyreactivity (PSR sort gate)” value is on record as “low polyreactivity”.
For the sequence “QVQLVESGGGLVQAGGSLRLSCAASGSISQPYAMGGYRQAPGKERELVAAIRWSGGSTYYADSVKGRFTISRDNAKNTVYLEMNCLNPEDTAVYYCNKTTYYPSDYVYWGQGTQVTVSS”, the “polyreactivity (PSR sort gate)” value was “low polyreactivity”.
For the sequence “QVQLVESGGGLVQAGGSLRLSCAASGSISSFYAMGWYRQAPGKERELVAGITSGGSTNYADSVKGRFTISRDNAKNTVYLQKNSLKPEDTAVYYCAAVYQGAGTHFDVFVKEFDYWGQGTQVTVSS”, the “polyreactivity (PSR sort gate)” value is on record as “low polyreactivity”.
Consider “QVQLVESGGGLVQAGGSLRLSCAASGSISTVYAMGWSRQAPGKERELVAAISWSGGSTYYADSVKGRFTISRDNAKNTDYLQMNSLKPEDTAFYYCAVRGLLYHSYYSVRYDYWGQGTQVTVSS”, for which the “polyreactivity (PSR sort gate)” value is on record as “high polyreactivity”.
Then “QVQLVESGGGLVQAGGSLRLSCAASGSISTYNDSGWYRQAPGKEREFVASITLSTGRTDYADSVKGRFTISRDNAKNTVYLQMNSLKPEETAVYVCSVRDYARKYLTSFDYWGQGTQVTVSS”, with “high polyreactivity”.
Take “QVQLVESGGGLVQAGGSLRLSCAASGSISVGYTMGWYRQAPGKEREFVAVITGTGGRTRYSDSVKGRFTISRDNAKNTVYLQMNSLKPEDTAGYYCAAKIRWRGALYDYWGQGTQVTVSS”: the “polyreactivity (PSR sort gate)” value is “high polyreactivity”.
For “QVQLVESGGGLVQAGGSLRLSCAASGSISVRNVMGWYRQAPGKERELVATIRRTGGSTSYADSVKGRFTISRDNAKNTVYVQMNSLKPEDTAVYYCAAVGYTTYRRYDYWGQGTQVTVSS”, the “polyreactivity (PSR sort gate)” value was “low polyreactivity”.
Consider “QVQLVESGGGLVQAGGSLRLSCAASGSISVRNVMGWYRQAPRKERELVATIRRTGGSTSYADSVKGRFTISRDNAKNTVYLQMNSLKPEDTAVYYCAAVGYTTYRRYDYWGQGTQVTVSS”, for which the “polyreactivity (PSR sort gate)” value is reported as “low polyreactivity”.
Regarding “QVQLVESGGGLVQAGGSLRLSCAASGSISVSYMGWYRQAPGKERELVAAINWRGGSTYYADSVKGRFTISRDNAKNTVYLQMNSLKPEDTAVYYCAADYTVSYPYYEYYYWGQGTQVNVSS”, the “polyreactivity (PSR sort gate)” value is listed as “high polyreactivity”.
For “QVQLVESGGGLVQAGGSLRLSCAASGSISWKYAMGWSRQAPGKERELVAAISWSGSSTYYADSVKGRFTISRDNAKNTVYLQMNSLKPEDTAVYYCAADRVSRLTNRREYWGQGTQVTVSS”, the “polyreactivity (PSR sort gate)” value is recorded as “high polyreactivity”.

The values above are taken from the nanobody polyreactivity screen of Harvey et al. (2022).
